What was measured:
CDK4 = CDK4 (UniProt P11802); assay: anti-HA co-IP, anti-FLAG blot; details: reference: wild type p21; sites T55
CDK2 = CDK2 (UniProt P24941); assay: anti-HA co-IP, anti-FLAG blot; details: reference: wild type p21; sites T55

binding against the reference (CDK4): weaker
binding against the reference (CDK2): weaker
Substance: p21 (from UniProt P38936) T55A p21

— article PMC6522503
